What was measured:
[1] = molecular target: T1, human FAP on HT1080 cells (HT1080-huFAP, stable transfectants) (human, UniProt Q12884 1-760); experiment: cell-based or functional assay
T1 sequence: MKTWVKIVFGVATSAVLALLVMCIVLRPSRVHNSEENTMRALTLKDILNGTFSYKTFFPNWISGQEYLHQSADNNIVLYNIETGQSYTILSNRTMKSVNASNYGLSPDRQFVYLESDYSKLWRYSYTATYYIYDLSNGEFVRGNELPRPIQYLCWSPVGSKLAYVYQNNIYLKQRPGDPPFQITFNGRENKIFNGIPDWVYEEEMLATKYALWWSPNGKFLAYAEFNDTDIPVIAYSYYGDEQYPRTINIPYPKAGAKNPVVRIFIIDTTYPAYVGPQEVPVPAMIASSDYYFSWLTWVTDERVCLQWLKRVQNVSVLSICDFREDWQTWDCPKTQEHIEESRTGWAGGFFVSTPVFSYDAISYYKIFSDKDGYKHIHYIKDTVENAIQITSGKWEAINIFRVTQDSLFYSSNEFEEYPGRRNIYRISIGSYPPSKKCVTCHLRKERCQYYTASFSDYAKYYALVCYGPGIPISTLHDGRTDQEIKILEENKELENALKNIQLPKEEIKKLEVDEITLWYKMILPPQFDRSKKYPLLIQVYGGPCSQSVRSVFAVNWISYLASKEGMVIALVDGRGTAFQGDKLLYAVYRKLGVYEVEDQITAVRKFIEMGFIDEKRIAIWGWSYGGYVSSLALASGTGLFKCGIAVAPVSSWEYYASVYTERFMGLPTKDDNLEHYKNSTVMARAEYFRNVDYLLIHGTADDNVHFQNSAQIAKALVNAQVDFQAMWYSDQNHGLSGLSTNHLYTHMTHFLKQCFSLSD

[2] = molecular target: T1, human FAP on HT1080 cells …; experiment: cell-based or functional assay; remark: listed apart in the source
[3] = molecular target: T1, human FAP on HT1080 cells …; experiment: FACS, HT1080-huFAP cells
[4] = molecular target: T2, recombinant human FAP (extracellular region aa 26-760; R&D systems) (human, UniProt Q12884 26-760); experiment: ELISA, recombinant FAP coated
T2 construct: also called rhFAP; recombinant FAP
T2 sequence: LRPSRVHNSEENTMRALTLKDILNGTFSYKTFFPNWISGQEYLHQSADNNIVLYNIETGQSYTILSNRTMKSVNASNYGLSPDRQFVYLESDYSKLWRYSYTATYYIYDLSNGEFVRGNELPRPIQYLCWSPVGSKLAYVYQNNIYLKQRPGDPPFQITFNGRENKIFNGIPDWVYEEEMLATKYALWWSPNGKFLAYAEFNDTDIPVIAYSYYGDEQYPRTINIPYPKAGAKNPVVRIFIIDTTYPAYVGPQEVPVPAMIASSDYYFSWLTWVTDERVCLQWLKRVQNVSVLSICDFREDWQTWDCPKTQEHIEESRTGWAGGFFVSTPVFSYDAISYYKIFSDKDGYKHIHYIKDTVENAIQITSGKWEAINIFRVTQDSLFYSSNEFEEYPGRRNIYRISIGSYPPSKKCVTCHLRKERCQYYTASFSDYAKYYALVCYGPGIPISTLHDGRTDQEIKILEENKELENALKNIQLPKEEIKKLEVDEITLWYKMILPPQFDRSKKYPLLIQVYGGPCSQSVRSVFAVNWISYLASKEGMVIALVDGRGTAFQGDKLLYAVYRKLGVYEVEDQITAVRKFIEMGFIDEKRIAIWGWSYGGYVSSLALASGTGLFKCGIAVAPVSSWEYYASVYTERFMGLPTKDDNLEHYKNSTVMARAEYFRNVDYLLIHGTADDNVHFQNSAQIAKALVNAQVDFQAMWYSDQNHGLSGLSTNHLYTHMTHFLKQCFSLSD

[5] = molecular target: T3, mouse FAP on HT1080 cells (HT1080-moFAP) (mouse, UniProt P97321 1-761); experiment: FACS, HT1080-moFAP cells
T3 construct: Murine FAP on stably transfected HT1080 cells; also called murine FAP
T3 sequence: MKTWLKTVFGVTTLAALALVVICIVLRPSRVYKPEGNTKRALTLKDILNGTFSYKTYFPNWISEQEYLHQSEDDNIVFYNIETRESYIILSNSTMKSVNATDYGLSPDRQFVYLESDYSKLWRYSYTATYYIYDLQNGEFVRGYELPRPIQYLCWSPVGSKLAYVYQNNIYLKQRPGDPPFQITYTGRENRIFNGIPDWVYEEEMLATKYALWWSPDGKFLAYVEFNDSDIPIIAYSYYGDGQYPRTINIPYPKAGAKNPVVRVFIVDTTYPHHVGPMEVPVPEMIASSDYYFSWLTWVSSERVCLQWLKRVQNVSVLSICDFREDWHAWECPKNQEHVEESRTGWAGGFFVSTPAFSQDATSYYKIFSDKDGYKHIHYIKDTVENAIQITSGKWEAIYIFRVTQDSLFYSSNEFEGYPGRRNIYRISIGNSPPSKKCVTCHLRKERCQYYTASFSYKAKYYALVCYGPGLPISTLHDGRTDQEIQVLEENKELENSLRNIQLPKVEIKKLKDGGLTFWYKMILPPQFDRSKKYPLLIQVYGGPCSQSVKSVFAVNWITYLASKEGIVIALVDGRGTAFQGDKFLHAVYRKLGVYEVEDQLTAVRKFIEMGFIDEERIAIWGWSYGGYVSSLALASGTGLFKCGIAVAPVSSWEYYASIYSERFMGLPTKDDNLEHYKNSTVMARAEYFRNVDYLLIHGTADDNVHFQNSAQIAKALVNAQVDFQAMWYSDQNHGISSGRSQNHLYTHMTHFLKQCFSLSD

[6] = molecular target: T2, recombinant human FAP (extracellular …); experiment: ELISA, rhFAP
[7] = molecular target: T2, recombinant human FAP (extracellular …); experiment: QCM (Attana A100), rhFAP; KD2
[8] = molecular target: T3, mouse FAP on HT1080 cells (HT1080-moFAP); experiment: flow cytometry, HT1080-moFAP cells
[9] = molecular target: T1, human FAP on HT1080 cells …; experiment: flow cytometry, HT1080-huFAP cells
[10] = molecular target: T2, recombinant human FAP (extracellular …); experiment: QCM (Attana A100), rhFAP; KD1

B1: Anti-FAP hu36-IgG1-recNgA immunotoxin conjugate HPS131-001-1 (antibody)
heavy: QVQLVQSGAEVKKPGASVKVSCKASGYTFTENIIHWVRQAPGQGLEWMGWFHPGSGSIKYNEKFKDRVTMTADTSTSTVYMELSSLRSEDTAVYYCARHGGTGRGAMDYWGQGTLVTVSSASTKGPSVFPLAPSSKSTSGGTAALGCLVKDYFPEPVTVSWNSGALTSGVHTFPAVLQSSGLYSLSSVVTVPSSSLGTQTYICNVNHKPSNTKVDKKVEPKSCDKTHTCPPCPAPPVAGPSVFLFPPKPKDTLMISRTPEVTCVVVDVSHEDPEVKFNWYVDGVEVHNAKTKPREEQYNSTYRVVSVLTVLHQDWLNGKEYKCKVSNKGLPSSIEKTISKAKGQPREPQVYTLPPSRDELTKNQVSLTCLVKGFYPSDIAVEWESNGQPENNYKTTPPVLDSDGSFFLYSKLTVDKSRWQQGNVFSCSVMHEALHNHYTQKSLSLSPGK
light: DIQMTQSPSSLSASVGDRVTITCRASKSVSTSAYSYMHWYQQKPGKAPKLLIYLASNLESGVPSRFSGSGSGTDFTLTISSLQPEDFATYYCQHSRELPYTFGQGTKLEIKRTVAAPSVFIFPPSDEQLKSGTASVVCLLNNFYPREAKVQWKVDNALQSGNSQESVTEQDSKDSTYSLSSTLTLSKADYEKHKVYACEVTHQGLSSPVTKSFNRGEC
chain: MIDYPSVSFNLDGAKSATYRDFLSNLRKTVATGTYEVNGLPVLRRESEVQVKSRFVLVPLTNYNGNTVTLAVDVTNLYVVAFSGNANSYFFKDATEVQKSNLFVGTKQNTLSFTGNYDNLETAANTRRESIELGPSPLDGAITSLYHGDSVARSLLVVIQMVSEAARFRYIEQEVRRSLQQATSFTPNALMLSMENNWSSMSLEIQQAGNNVSPFFGTVQLLNYDHTHRLVDNFEELYKITGIAILLFRCSSPSND
modifications: single cysteine in a hindered disulphide bond to the SMPT-derivatised antibody; derivatised with SMPT on amino groups; disulphide link to recNgA
In the case of B1, the “cytotoxicity on HT1080-FAP cells (cell viability), IC50” value [1] is reported as 5 µM.

B2: ADC-558 (HPS-157-039-005), anti-FAP hu36:TAM558 ADC (antibody, V domains shown)
VH: QVQLVQSGAEVKKPGASVKVSCKASGYTFTENIIHWVRQAPGQGLEWMGWFHPGSGSIKYNEKFKDRVTMTADTSTSTVYMELSSLRSEDTAVYYCARHGGTGRGAMDYWGQGTLVTVSS
VL: DIQMTQSPSSLSASVGDRVTITCRASKSVSTSAYSYMHWYQQKPGKAPKLLIYLASNLESGVPSRFSGSGSGTDFTLTISSLQPEDFATYYCQHSRELPYTFGQGTKLEIKR
modifications: cytolysin-linker TAM558 on cysteine residues (not site-specific); cytolysin-linker TAM558 (vcPABA linker in R4 with 3 ethylene glycol spacer) on cysteine residues (not site-specific), DAR 3.92 for the whole antibody
With B2 the “IC50 in Proliferation Arrest Assay (nM), HT1080-FAP” value [2] was 0.96 nM and the “specificity ratio between FAP(+) and FAP(-) HT1080 cells (cytotoxic activity)” value [1] was 500.

B3: humanized anti-FAP IgG1 hu36 (hu36-IgG1) (antibody, V domains shown)
VH: B2 VH
VL: B2 VL
notes: Full-length humanized IgG1/kappa, gamma1* = deficient for ADCC and CDC; made in CHO cells; also called anti-hu/moFAP hu36; naked anti-FAP hu36-IgG1
B3 showed an EC50 [3] of 0.3 nM, an EC50 [4] of ~5 nM and an EC50 [5] of 0.2 nM. For the same binder, the EC50 [6] was 3 nM, the Kd [7] was 0.4 nM and the EC50 [8] was 0.25 nM. For the same binder, the EC50 [9] was 0.33 nM and the Kd [10] was 218 nM.
